Assay results taken from article PMC3785434.
Values belong to the substance of their own block, whether it stands above or below them.

Experiments:
Assay in all cases: SEC; HiLoad 16/60 Superdex 75, 50 mM sodium phosphate pH 7.4, 50 µg sample, 0.6 mL/min, calibrated with mass standards; self-association of the free light chain (dimer)
[1] = molecular target: Bence Jones protein from AL-2 patient (human) (UniProt P01701)
[2] = molecular target: recombinant free immunoglobulin lambda light chain of AL amyloidosis patient AL-1 (human) (UniProt P01699)
[3] = molecular target: recombinant free immunoglobulin lambda light chain of AL amyloidosis patient AL-2 (human) (UniProt P01701)
[4] = molecular target: recombinant free immunoglobulin lambda light chain of AL amyloidosis patient AL-3 (human) (UniProt P01699)

stoichiometry N [1]: 2
Substance: Bence Jones protein from AL-2 patient (from UniProt P01701 20-117) (natural protein)

stoichiometry N [2]: 2
Substance: recombinant free immunoglobulin lambda light chain of AL amyloidosis patient AL-1 (from UniProt P01699 20-117)

stoichiometry N [3]: 2
Substance: recombinant free immunoglobulin lambda light chain of AL amyloidosis patient AL-2 (from UniProt P01701 20-117)

stoichiometry N [4]: 2
Substance: recombinant free immunoglobulin lambda light chain of AL amyloidosis patient AL-3 (from UniProt P01699 20-117)
